B1: TPR t1 (parent)
chain: GACCAAUCUGCCCUCAGAGCUCGAGAACAUCUUCGGAUGCAGAGGAGGCAGGCUUCGGUGGCGCGAUAGCGCCAACGUCCUCAACCUCCAAUGCAUCCCACCACAUGAUGAUGCCUGAAGAGCCUUGGUUUUUUG

Variants of: B1
Experiment: polymerase ribozyme fitness, log enrichment relative to wild type (log ratio); higher = more active; in vitro selection for triplet polymerase activity
How it was run: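 Fitness measures genotype enrichment against wild-type enrichment on a logarithmic scale, with inverse-variance-weighted averaging of replicates. The logarithm is base 2, and genotypes were kept only with ≥10 input reads and ≥1 read per output in Illumina sequencing. The sequenced libraries came from one triplicate in vitro selection round, including frozen incubation at −7 °C, of PCR-built, transcribed mutant libraries of each subunit of a heterodimeric triplet polymerase ribozyme.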

Row | Variant | polymerase ribozyme fitness (log ratio)
1 | A83G C97U U109A | -5.36
2 | A83G G120U C124A G135A | 0.857
3 | A83G U109C | -5.77
4 | A83G U112C U131A | 1.02
5 | A83U C85A U112A C114A | -3.32
6 | A83U C104A | -1.18
7 | A83U G93C C104U U116G G122A | -4.03
8 | A83U G117U | -1.02
9 | A83U G120U U129C | -1.36
10 | A83U G128C | -2.32
11 | A84C C85U U87A C89G C124A | -5.8
12 | A84C C94G U96C C124U | -0.869
13 | A84C C98A C114G U116C | -4.74
14 | A84C C123U U133G | 0.656
15 | A84C C124U | 1.55
16 | A84C G120U | 1.51
17 | A84C U87A U96A | -1.65
18 | A84C U116G | -1.83
19 | A84C U130C | -0.28
20 | A84G C98A | -6.26
21 | A84G C98U A100U | -4.01
22 | A84G G93U C101A | -3.07
23 | A84G G93U U125G | -2.63
24 | A84G G127C | -2

Row | Variant | polymerase ribozyme fitness (log ratio)
25 | A84G U109G | -5.8
26 | A84G U116G | -2.89
27 | A84G U130G | -1.3
28 | A84U A90G C98G U109A A121U | -3.5
29 | A84U A105C U116C | -5.74
30 | A84U C88A | -1.4
31 | A84U C94A C115A | -1.46
32 | A84U C97U | -0.894
33 | A84U C102U C123U | -1.1
34 | A84U C114A U131A | -0.993
35 | A84U C114U | -2.03
36 | A84U C124A | 1.73
37 | A84U G128C | -2.56
38 | A84U U131G | -0.716
39 | A84U U133A | -0.823
40 | C85A C94A A111U | -5.51
41 | C85A C94G G110A | -3.12
42 | C85A C124A U126G | -0.918
43 | C85A G128C | -4.07
44 | C85A U96A | -2.43
45 | C85G A108G | -3.15
46 | C85G C86A | -1.69
47 | C85G C114G | -3.82
48 | C85G C115G U132A | -2.4

Row | Variant | polymerase ribozyme fitness (log ratio)
49 | C85G C123A | -0.897
50 | C85G C124G U126G | -0.338
51 | C85G G113C C114A U132C | -6.29
52 | C85G G127C | -2.56
53 | C85G U106A | -1.05
54 | C85G U112C | 0.41
55 | C85G U112G | -1.15
56 | C85G U133G | -2.39
57 | C85U A95U C115A G120C | -0.474
58 | C85U C97A C115G | -5.83
59 | C85U C101A C104A | -3.57
60 | C85U C101G C115A | -2.93
61 | C85U C114G | -3.53
62 | C85U U112C | 1.15
63 | C85U U116A C123U U129A | -5.12
64 | C85U U132A | -1.56
65 | C86A A105C | -2.57
66 | C86A A121G | 1.66
67 | C86A C104A C124G G128U U133A | -1.59
68 | C86A C124A | 1.35
69 | C86A G93U C115U | -4.53
70 | C86A G110A C123G | -1.37
71 | C86A G110U | -2.79
72 | C86A G120C | -0.326

Row | Variant | polymerase ribozyme fitness (log ratio)
73 | C86A G135U | -1.3
74 | C86A U112C | -0.51
75 | C86G A108G U130A | -3.28
76 | C86G C89G C104U | -0.896
77 | C86G G110A G113U C124A | -6.69
78 | C86G U116A | -4.49
79 | C86G U126C | -1.74
80 | C86U A100U | -0.74
81 | C86U A119U | -0.189
82 | C86U C88U | 0.0768
83 | C86U C89U | -0.118
84 | C86U C94A U106G | -3.23
85 | C86U C114A | -1.71
86 | C86U G110A | -2.37
87 | C86U G117A | -1.56
88 | C86U G120A | 0.277
89 | C86U U130C | 0.0697
90 | U87A A105U | -1.78
91 | U87A A118G | 0.111
92 | U87A A121C | 1.23
93 | U87A A121G | 1.17
94 | U87A C89G | -2.18
95 | U87A C99A C115G G122U C124G | -7.12
96 | U87A C99U G110U | -5.56

Row | Variant | polymerase ribozyme fitness (log ratio)
97 | U87A C101U | 0.0521
98 | U87A C123G | 1.66
99 | U87A G93A | -0.908
100 | U87A G113C | -2.81
101 | U87A G120C U131G | 1.11
102 | U87A U106A | 0.566
103 | U87A U130C | -1.39
104 | U87C A90C C115A | -0.371
105 | U87C A90G C94U | 0.339
106 | U87C C88A U106G | -2.76
107 | U87C C94A | -0.939
108 | U87C C115U | -0.297
109 | U87C G117A | -1.27
110 | U87G A103C | -5.65
111 | U87G A103C U106C C124G | -1.08
112 | U87G C123A | 0.557
113 | U87G G117A | -1.13
114 | U87G U130G | -0.21
115 | C88A A95U C102A G120A | -3.23
116 | C88A A105C | -2.46
117 | C88A C94A | -1.66
118 | C88A C94U | -0.581
119 | C88A C99A U125G | -6.88
120 | C88A C99U G113A C114U | -5.9

Row | Variant | polymerase ribozyme fitness (log ratio)
121 | C88A C102A | -2.16
122 | C88A C102A G107A A111C U116G C123G U125A | -6.39
123 | C88A C104A | -1.63
124 | C88A C104A A121U U130C | 0.158
125 | C88A C123U G127U U131G | -0.279
126 | C88A C124A | 0.767
127 | C88A G93C | -2.45
128 | C88A G107A | -5.92
129 | C88A G110A | -1.49
130 | C88A G117U | -2.84
131 | C88A G120U | -0.146
132 | C88A U92A G113A | -3.73
133 | C88A U126A | -3.12
134 | C88G C89A | -1.75
135 | C88G C97A C104U | -5.23
136 | C88G C104U C123G | 1.53
137 | C88G C124G | 1.77
138 | C88G C124U | 0.871
139 | C88G G110A | -1.15
140 | C88G G117A | -2.35
141 | C88G U96A | -2.61
142 | C88U A118U | 0.45
143 | C88U C89A C115U G117C U126A | -3.5
144 | C88U C97U | -1.02

Row | Variant | polymerase ribozyme fitness (log ratio)
145 | C88U C98A | -4.94
146 | C88U C101U | -0.588
147 | C88U G113C | -2.8
148 | C88U G113U | -3.09
149 | C88U G120A | -0.0108
150 | C88U G122A | -1.42
151 | C88U U106A C114G | -5.05
152 | C88U U112A | 0.961
153 | C89A A90G | -1.53
154 | C89A A100U C115G | -5.22
155 | C89A A119U | -1.88
156 | C89A C97U | -2.16
157 | C89A G110A | -3.58
158 | C89A G110U | -3.66
159 | C89A G113C G117A | -5.73
160 | C89A G120C | -0.369
161 | C89A U112A | -1.53
162 | C89A U132C | -1.96
163 | C89G C104U A121U | 1.58
164 | C89G G127A | -1.9
165 | C89G U106A | -2.51
166 | C89G U106A G120C G122C | -1.85
167 | C89U A105G | -2.76

— the RNAGym collection of RNA variant scans (doi:10.1073/pnas.2313332121)
